# According to patent US20040018971A1 (published 2004):
# Where no end group is shown, it is not given here. [ ]: non-standard residue; d: D form. Abu = CC[C@H](N)C(=O)O
# B1: Her2/neu.600 (peptide)
# peptide: CPSGVKPDLSY
# notes: native HER2/neu peptide from position 600
# B2: Her2/neu.65 (9-mer) (peptide)
# peptide: LPTNASLSF
# notes: native HER2/neu peptide from position 65
# B3: Her2/neu.528.B1B4 (peptide)
# peptide: [Abu]VN[Abu]SQFLR
# notes: synthetic analog peptide; also called BVNBSQFLR
# B4: Her2/neu.528.B1B4K9 (peptide)
# peptide: BVNBSQFLK
# modifications: B at positions 1 and 4 = alpha-amino butyric acid (in place of cysteine)
# notes: synthetic analog peptide; also called BVNBSQFLK
# B5: Her2/neu.218.B3B7 (peptide)
# peptide: TV[Abu]AGG[Abu]AR
# notes: synthetic analog peptide; also called TVBAGGBAR
# B6: Her2/neu.1149.F1I11 (peptide)
# peptide: FPSPREGPLPI
# notes: 11-mer analog of the HER2/neu peptide starting at position 1149
# B7: Her2/neu.1151.F1I9 (peptide)
# peptide: FPREGPLPI
# notes: 9-mer analog of the HER2/neu peptide starting at position 1151
# B8: Her2/neu.1157.F1I9 (peptide)
# peptide: FPAARPAGI
# notes: 9-mer analog of the HER2/neu peptide starting at position 1157
# B9: Her2/neu.995.F1I10 (peptide)
# peptide: FPASPLDSTI
# notes: 10-mer analog of the HER2/neu peptide starting at position 995
# Target: HLA-B*0702 (human)
# Assay: competition with 125I probe peptide, purified HLA
row,Binder,IC50
1,B1,183 nM
2,FPSGVKPDLSI (analog peptide) [Her2/neu.600.F1I11],196 nM
3,FPTNASLSFL (analog peptide) [Her2/neu.65.F1 (10-mer)],18 nM

# Target: HLA-B*3501 (human)
# Assay: competition with 125I probe peptide, purified HLA
row,Binder,IC50
1,B2,114 nM
2,B1,3600 nM
3,FPSGVKPDLSI (analog peptide) [Her2/neu.600.F1I11],3270 nM
4,FPTNASLSFL (analog peptide) [Her2/neu.65.F1 (10-mer)],200 nM

# Target: HLA-B*5101 (human)
# Assay: competition with 125I probe peptide, purified HLA
row,Binder,IC50
1,B2,809 nM
2,FPTNASLSFL (analog peptide) [Her2/neu.65.F1 (10-mer)],262 nM

# Target: HLA-B*5301 (human)
# Assay: competition with 125I probe peptide, purified HLA
row,Binder,IC50
1,B2,34 nM
2,FPTNASLSFL (analog peptide) [Her2/neu.65.F1 (10-mer)],172 nM

# Target: HLA-A*0301 (human)
# Assay: inhibition of 125I probe peptide binding to purified HLA
row,Binder,IC50
1,B3,177 nM
2,B4,34 nM
3,B5,314 nM
4,HVVPWDQLFR (synthetic analog peptide) [Her2/neu.478.V2],7330 nM
5,HTVPWDQLFR (synthetic peptide) [Her2/neu.478],3140 nM
6,CVNCSQFLR (synthetic peptide) [Her2/neu.528],7330 nM
7,ILWKDIFHK (synthetic peptide) [Her2/neu.167],39 nM
8,IVWKDIFHR (synthetic analog peptide) [Her2/neu.167.V2R9],143 nM
9,IVWLGLRSLR (synthetic analog peptide) [Her2/neu.450.V2],234 nM
10,TVLWKDIFHR (synthetic analog peptide) [Her2/neu.166.V2R10],8460 nM

# Target: HLA-A*1101 (human)
# Assay: as above
row,Binder,IC50
1,B3,80 nM
2,B4,22 nM
3,B5,111 nM
4,HVVPWDQLFR (synthetic analog peptide) [Her2/neu.478.V2],1330 nM
5,HTVPWDQLFR (synthetic peptide) [Her2/neu.478],83 nM
6,CVNCSQFLR (synthetic peptide) [Her2/neu.528],194 nM
7,ILWKDIFHK (synthetic peptide) [Her2/neu.167],19 nM
8,IVWKDIFHR (synthetic analog peptide) [Her2/neu.167.V2R9],286 nM
9,IVWLGLRSLR (synthetic analog peptide) [Her2/neu.450.V2],1940 nM
10,TVLWKDIFHR (synthetic analog peptide) [Her2/neu.166.V2R10],286 nM

# Target: HLA-A*3101 (human)
# Assay: as above
row,Binder,IC50
1,B3,38 nM
2,B4,60 nM
3,B5,247 nM
4,HVVPWDQLFR (synthetic analog peptide) [Her2/neu.478.V2],391 nM
5,HTVPWDQLFR (synthetic peptide) [Her2/neu.478],19 nM
6,CVNCSQFLR (synthetic peptide) [Her2/neu.528],34 nM
7,ILWKDIFHK (synthetic peptide) [Her2/neu.167],82 nM
8,IVWKDIFHR (synthetic analog peptide) [Her2/neu.167.V2R9],6 nM
9,IVWLGLRSLR (synthetic analog peptide) [Her2/neu.450.V2],11 nM
10,TVLWKDIFHR (synthetic analog peptide) [Her2/neu.166.V2R10],600 nM

# Target: HLA-A*3301 (human)
# Assay: as above
row,Binder,IC50
1,B3,58 nM
2,B4,4260 nM
3,B5,242 nM
4,HVVPWDQLFR (synthetic analog peptide) [Her2/neu.478.V2],193 nM
5,HTVPWDQLFR (synthetic peptide) [Her2/neu.478],88 nM
6,CVNCSQFLR (synthetic peptide) [Her2/neu.528],50 nM
7,ILWKDIFHK (synthetic peptide) [Her2/neu.167],967 nM
8,IVWKDIFHR (synthetic analog peptide) [Her2/neu.167.V2R9],16 nM
9,IVWLGLRSLR (synthetic analog peptide) [Her2/neu.450.V2],193 nM
10,TVLWKDIFHR (synthetic analog peptide) [Her2/neu.166.V2R10],76 nM

# Target: HLA-A*6801 (human)
# Assay: as above
row,Binder,IC50
1,B3,10 nM
2,B4,15 nM
3,B5,8 nM
4,HVVPWDQLFR (synthetic analog peptide) [Her2/neu.478.V2],3.6 nM
5,HTVPWDQLFR (synthetic peptide) [Her2/neu.478],4 nM
6,CVNCSQFLR (synthetic peptide) [Her2/neu.528],18 nM
7,ILWKDIFHK (synthetic peptide) [Her2/neu.167],1740 nM
8,IVWKDIFHR (synthetic analog peptide) [Her2/neu.167.V2R9],15 nM
9,IVWLGLRSLR (synthetic analog peptide) [Her2/neu.450.V2],7.3 nM
10,TVLWKDIFHR (synthetic analog peptide) [Her2/neu.166.V2R10],42 nM

# Target: HLA-B*0702 (human)
# Assay: competition vs 125I-labelled probe peptide, purified HLA, gel filtration
row,Binder,IC50
1,B6,190 nM
2,B7,0.3 nM
3,B8,9.3 nM
4,B9,20 nM

# Target: HLA-B*5101 (human)
# Assay: as above
row,Binder,IC50
1,B6,262 nM
2,B7,14 nM
3,B8,131 nM
4,B9,20 nM

# Target: HLA-B*5301 (human)
# Assay: as above
row,Binder,IC50
1,B6,5170 nM
2,B7,2820 nM
3,B8,4230 nM
4,B9,30 nM

# Target: HLA-B*5401 (human)
# Assay: as above
row,Binder,IC50
1,B6,263 nM
2,B7,4 nM
3,B8,48 nM
4,B9,14 nM

# Target: T1, HLA-A*0201 (human)
# T1 construct: also called HLA-A2.1
# Assay: competitive inhibition of 125I-labelled standard peptide binding to purified HLA, gel filtration
row,Binder,relative binding ratio (IC50 of standard peptide / IC50 of test peptide)
1,"MARDPQRFV (Synthetic peptide) [HER2/neu A02 supermotif peptide, position 979, 9 amino acids]",0.0001 ratio
2,"LVDAEEYLV (Synthetic peptide) [HER2/neu A02 supermotif peptide, position 1017, 9 amino acids]",0.003 ratio
3,"LVCPLHNQEV (Synthetic peptide) [HER2/neu A02 supermotif peptide, position 313, 10 amino acids]",0.0002 ratio
4,"LVSEFSRM (Synthetic peptide) [HER2/neu A02 supermotif peptide, position 972, 8 amino acids]",0.0001 ratio
5,"MIMVKCWMI (Synthetic peptide) [HER2/neu A02 supermotif peptide, position 953, 9 amino acids]",0.0051 ratio
6,"LVSEFSRMA (Synthetic peptide) [HER2/neu A02 supermotif peptide, position 972, 9 amino acids]",0.0001 ratio
7,"MAGVGSPYV (Synthetic peptide) [HER2/neu A02 supermotif peptide, position 774, 9 amino acids]",0.0014 ratio
8,"NASLSFLQDI (Synthetic peptide) [HER2/neu A02 supermotif peptide, position 68, 10 amino acids]",0.0001 ratio

# Target: T2, HLA-A*0201 (human)
# T2 construct: Purified HLA class I molecule; also called HLA-A2.1
# Assay: competition with 125I-labelled standard peptide for purified HLA-A*0201, gel filtration; ratio to the standard peptide
row,Binder,relative binding ratio (IC50 of standard peptide / IC50 of test peptide)
1,"DLLNWCMQI (Synthetic peptide) [HER2/neu peptide, position 821, 9 amino acids]",0.0002 ratio
2,"ELGSGLALI (Synthetic peptide) [HER2/neu peptide, position 460, 9 amino acids]",0.0004 ratio
3,"ELAALCRWGL (Synthetic peptide) [HER2/neu peptide, position 2, 10 amino acids]",0.0001 ratio
4,"GAAKGLQSL (Synthetic peptide) [HER2/neu peptide, position 1093, 9 amino acids]",0.0001 ratio
5,"DVRLVHRDL (Synthetic peptide) [HER2/neu peptide, position 838, 9 amino acids]",0.0002 ratio
6,"GAFGTVYKGI (Synthetic peptide) [HER2/neu peptide, position 729, 10 amino acids]",0.0001 ratio
7,"DVWSYGVTV (Synthetic peptide) [HER2/neu peptide, position 904, 9 amino acids]",0.0002 ratio
8,"DLVDAEEYLV (Synthetic peptide) [HER2/neu peptide, position 1016, 10 amino acids]",0.0002 ratio
9,"ELVSEFSRMA (Synthetic peptide) [HER2/neu peptide, position 971, 10 amino acids]",0.0001 ratio
10,"EILKGGVLI (Synthetic peptide) [HER2/neu peptide, position 147, 9 amino acids]",0.0001 ratio
11,"GAMPNQAQM (T0001 prints N at position 706) [HER2/neu peptide, position 704, 9 amino acids]",0.0002 ratio
12,"DLVDAEEYL (Synthetic peptide) [HER2/neu peptide, position 1016, 9 amino acids]",0.0002 ratio
13,"FVVIQNEDL (Synthetic peptide) [HER2/neu peptide, position 986, 9 amino acids]",0.0002 ratio
14,"DVFAFGGAV (Synthetic peptide) [HER2/neu peptide, position 1183, 9 amino acids]",0.0002 ratio
15,"FVHTVPWDQL (Synthetic peptide) [HER2/neu peptide, position 476, 10 amino acids]",0.0001 ratio
16,"DLSVFQNLQV [HER2/neu peptide, position 421, 10 amino acids]",0.0003 ratio
